In PMC5061367:

How the values were obtained:
[1] = molecular target: APOBEC3C I188 (human) (UniProt Q9NRW3); experiment: cross-linking; 0.5 μM protein with 10 μM BS3 in 20 mM Hepes pH 7.5, 150 mM NaCl, 1 mM DTT, 1 hour at 21°C; SDS-PAGE and Western blot with anti-APOBEC3C
[2] = molecular target: APOBEC3C I188 (human) (UniProt Q9NRW3); experiment: SEC; 10 μg of purified enzyme on a 10 mL Superdex 200 column; 50 mM Tris pH 8.0, 200 mM NaCl, 1 mM DTT; masses from a Bio-Rad standard curve; fractions read by SDS-PAGE and Western blot

## APOBEC3C I188 (from UniProt Q9NRW3 1-190) (enzyme)
[1]
  stoichiometry N: 2
[2]
  stoichiometry N: 2
